Experimental data published in patent US20020031818A1, “Modification of Mdm2 activity” (priority 2000, published 2002).

What was measured:
[1] = target: T1, GST-Mdm2 (Homo sapiens, UniProt Q00987); assay: In vitro ubiquitination of GST-Mdm2 (self-ubiquitination); type: biochemical; settings: bacculovirus-purified p19ARF added to GST-Mdm2
T1 construct: made in house
Description: GST-Mdm2 was subjected to an in vitro ubiquitination reaction using purified forms of E1, E2 and Ub-HA in the presence of ATP. […] Glutathione bead-coupled GST-Mdm2 in its ubiquitinated or non-ubiquitinated forms was washed and analyzed on immunoblots using antibodies to HA (upper panel). Middle panel depicts the level of Mdm2 expression and the lower panel, the level of p19^ARF added to the reaction.

[2] = target: T2, Ubc9 binding to Mdm2 (Homo sapiens, UniProt Q00987); assay: In vitro binding of Ubc9 to GST-Mdm2; settings: in vitro translated p19ARF and Ubc9, GST-Mdm2 1 μg
T2 construct: made in house; host or cells: GST-Mdm2: bacteria; Ubc9: in vitro translation
Description: FIGS. 17A and 17B. A. p19^ARF decreases Ubc9 binding to Mdm2. Bacterially expressed and purified GST-Mdm2 (1 μg) was incubated with ^35S-labeled in vitro translated p19^ARF and Ubc9 at the indicated ratios. After 30 min of incubation GSH beads bound-GST-Mdm2 were washed and separated on a 12% SDS-PAGE. Gel was dried and subjected to autoradiograph, depicting relative amounts of Ubc9 and p19^ARF bound to Mdm2. B. Bacterially expressed and purified GST-Mdm2 (1 μg) was phosphorylated by purified form of active p38 kinase as indicated. Phosphorylated or un-phosphorylated Mdm2 was incubated for 30 min with in vitro translated UbcH5b and Ubc9 (25 μl). Beads were washed and separated on a 12% SDS-PAGE. Gel was dried and exposed to X-ray film. Position of Ubc9 and UbcH5b is shown.
A prerequisite for Mdm2 sumoylation is the association of Ubc9, the SUMO conjugating enzyme, with Mdm2, which enables subsequent conjugation of SUMO-1 to Mdm2. Inhibition of Ubc9's association with Mdm2 attenuates Mdm2 sumoylation. Given the effect of p19^ARF on Mdm2 sumoylation, we proceeded to determine whether p19^ARF may alter Ubc9 binding to Mdm2. To this end we performed an in vitro binding assay, using in vitro translated p19^ARF and Ubc-9, as indicated. […] We next assessed possible changes in Ubc9 binding to Mdm2 upon its phosphorylation by p38.

[3] = target: T3, Mdm2 (Homo sapiens, UniProt Q00987); assay: Pulse-chase half-life of Mdm2 wt or S218A in normal human fibroblasts; type: cell-based; design: Normal human fibroblasts (TIG) were transfected with HA-Ub and wt or mutant Ubc9 plasmids as indicated; endogenous in cells; host or cells: normal human fibroblasts (TIG)
Description: FIG. 16A-16F. A. Activation of p38 increases Mdm2 ubiquitination in vivo. EJ cells were transfected with indicated plasmids. 36 h after transfection cells were harvested and Mdm2 was immunoprecipitated (2A10 antibodies). […] Middle panels show expression levels of Mdm2 and p19^ARF. Lower panels depict phospho-and total p38 levels. B. Mutation at Ser218 of Mdm2 abolishes p38 induced Mdm2 ubiquitination. Normal human fibroblasts were transfected with indicated plasmids. 36 h after transfection cells were harvested and lysed. Mdm2 was immunoprecipitated and proteins were separated on a 8% SDS-PAGE. […] C. Mutation at Ser218 of Mdm2 abrogates p19^ARF-induced Mdm2 degradation. […] Upper panels depict Mdm2-Sumo conjugates (detected via Sumo-1 anitbodies), as well as the 75 kD and 90 kD forms of Mdm2 (detected via Mdm2 antibodies). […] To monitor possible changes in amount of p19 bound to Mdm2 association was monitored using normalized Mdm2 levels at the indicated time-points after UV-treatment.
Normal human fibroblasts (NHF) were transfected with wt or S218A forms of Mdm2 expression vectors (4 μg). ^35S-methionine (1 mCi) was added to the cell cultures 24 h after transfection for 5 h (pulse) followed by chase (2 mM cold methionine) for the indicated time points. […] Immunoprecipated Mdm2 was washed, separated on 10% SDS-PAGE, and analyzed by autoradiography.

[4] = target: T3, Mdm2; assay: Co-immunoprecipitation of p19ARF forms with Mdm2; type: cell-based; design: expressed in transfected cells; host or cells: 293T; settings: forced expression of Mdm2 and wt or Δ62 p19ARF

T3 sequence (Q00987 whole entry): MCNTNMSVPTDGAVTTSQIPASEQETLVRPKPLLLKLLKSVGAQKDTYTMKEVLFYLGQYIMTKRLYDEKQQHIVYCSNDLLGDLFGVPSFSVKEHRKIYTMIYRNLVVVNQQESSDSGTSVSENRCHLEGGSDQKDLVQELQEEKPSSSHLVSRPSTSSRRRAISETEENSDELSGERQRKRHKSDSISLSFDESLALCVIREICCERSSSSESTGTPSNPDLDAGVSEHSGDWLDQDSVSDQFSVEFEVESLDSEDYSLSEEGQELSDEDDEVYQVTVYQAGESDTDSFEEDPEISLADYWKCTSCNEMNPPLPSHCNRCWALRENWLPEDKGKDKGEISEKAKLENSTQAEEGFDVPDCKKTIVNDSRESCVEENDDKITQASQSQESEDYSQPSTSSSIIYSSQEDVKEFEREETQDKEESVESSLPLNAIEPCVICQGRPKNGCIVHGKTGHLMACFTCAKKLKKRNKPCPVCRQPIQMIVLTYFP
T1 sequence (Q00987 whole entry): as above
T2 sequence (Q00987 whole entry): as above

B1: p19^ARF: Mdm2-regulating protein; in vitro translated, bacculovirus-expressed or transfected (protein)
chain: MGRRFLVTVRIQRAGRPLQERVFLVKFVRSRRPRTASCALAFVNMLLRLERILRRGPHRNPGPGDDDGQRSRSSSSAQLRCRFELRGPHYLLPPGARRSAGRLPGHAGGAARVRGSAGCARCLGSPAARLGPRAGTSRHRAIFAFRWVLFVFRWVVFVYRWERRPDRRA
- Mdm2 ubiquitination in vitro [1]: efficient inhibition of Mdm2 ubiquitination in vitro
- Ubc9 binding to Mdm2 in presence of increasing amounts of p19ARF [2]: dose dependent decrease in Ubc9 binding to Mdm2
- effect on half-life of wt Mdm2 [3]: efficiently shorten Mdm2 half-life
- complex of p19ARF form with Mdm2 [4]: only the wt form in complex with Mdm2
